{
  "source": "paper PMC9387928",
  "target": "T1, ZccR (MerR-type regulator) (Streptococcus mutans UA159) (UniProt Q8DRZ5)",
  "T1 sequence": "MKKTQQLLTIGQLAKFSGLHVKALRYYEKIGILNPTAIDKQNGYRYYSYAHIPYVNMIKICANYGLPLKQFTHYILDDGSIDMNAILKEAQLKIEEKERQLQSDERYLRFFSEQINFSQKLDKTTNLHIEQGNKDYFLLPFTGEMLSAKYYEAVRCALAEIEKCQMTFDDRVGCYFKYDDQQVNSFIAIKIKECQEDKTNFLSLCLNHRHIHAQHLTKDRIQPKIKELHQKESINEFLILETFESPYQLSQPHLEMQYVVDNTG",
  "test": "EMSA",
  "details": "10 mM Tris, 50 mM KCl, 1 ug poly dI-dC, 1 mM DTT, 5% glycerol, pH 7.5; 20 fmol probe in 20 ul; 6% native PAGE at 4 C; binding temperature not stated",
  "data": [
    {"sequence": "CACAAATAGCTTGACCTTCCCTTTAAGGTATAGTTTATAGTTAAACTATAACAAGGTTTGCTAAAAAATGCAATGATTTCTGTATTGGAAAGGAGCCAATCATGTCTAAAGGTGATAAACAAAAGAAAAGGCTTCAAAAAATGACTTGGCTTTCAATATG (double strand) [zccE-zccR intergenic region (IGR), 160 bp]", "values": [
      {"measurement": "binding", "value": "binds"}
    ]}
  ]
}
